Patent publication US20210017281A1 (IMMUNEXT, published 2021)

target: T1, human VISTA (human, UniProt Q9H7M9 33-194, limits assumed); assay: method not stated (Table 1, column Kd, M)
T1 construct: The ELISA text says only recombinant VISTA; also called recombinant VISTA

Binder	Kd
INX910 | VSTB73 (antibody, V domains shown) VH: QVQLVQSGAEVKKPGASVKVSCKASGYTFTDYVISWVRQAPGQGLEWMGEIYPGSGNTYYYEKFKGRVTMTRDTSTSTVYMELSSLRSEDTAVYYCARVLVSVMDYWGQGTLVTVSS VL: EIVLTQSPDFQSVTPKEKVTITCSASSSINYITWYQQKPDQSPKLLIKDTSKLASGVPSRFSGSGSGTDFTLTINSLEAEDAATYYCHQRSSYPWTFGQGTRLEIKR	2.26 nM
INX919 | VSTB115 (antibody, V domains shown) VH: QVQLVQSGAEVKKPGSSVKVSCKASGGTFSSYAISWVRQAPGQGLEWMGGIIPIFGTANYAQKFQGRVTITADESTSTAYMELSSLRSEDTAVYYCARSSYGWSYEFDYWGQGTLVTVSS VL: DIQMTQSPSSLSASVGDRVTITCRASQSIRTYLNWYQQKPGKAPKLLIYAASSLQSGVPSRFSGSGSGTDFTLTISSLQPEDFATYYCQQAYSNPITFGQGTKVEIKR	0.145 nM
VSTB116 (antibody, V domains shown) VH: QVQLVQSGAEVKKPGSSVKVSCKASGGTFSSYAISWVRQAPGQGLEWMGGIIPIFGTANYAQKFQGRVTITADESTSTAYMELSSLRSEDTAVYYCARSSYGWSYEFDYWGQGTLVTVSS VL: DIQMTQSPSSLSASVGDRVTITCRASQSINTNLNWYQQKPGKAPKLLIYAASSLQSGVPSRFSGSGSGTDFTLTISSLQPEDFATYYCQQARDTPITFGQGTKVEIKR	0.213 nM
INX917 | VSTB110 (antibody, V domains shown) VH: QVQLVQSGAEVKKPGSSVKVSCKASGGTFSSYAISWVRQAPGQGLEWMGGIIPIFGTANYAQKFQGRVTITADESTSTAYMELSSLRSEDTAVYYCARHSIGWVAELDYWGQGTLVTVSS VL: DIQMTQSPSSLSASVGDRVTITCRASQSINTDLNWYQQKPGKAPKLLIYAASSLQSGVPSRFSGSGSGTDFTLTISSLQPEDFATYYCQQGASDPITFGQGTKVEIKR	0.202 nM
VSTB108 (antibody, V domains shown) VH: QVQLVQSGAEVKKPGSSVKVSCKASGGTFSSYAISWVRQAPGQGLEWMGGIIPIFGTANYAQKFQGRVTITADESTSTAYMELSSLRSEDTAVYYCARNTFGWSGELDYWGQGTLVTVSS VL: DIQMTQSPSSLSASVGDRVTITCRASQSISNRLNWYQQKPGKAPKLLIYSASSLQSGVPSRFSGSGSGTDFTLTISSLQPEDFATYYCQQNHDNPITFGQGTKVEIKR	0.494 nM
VSTB111 (antibody, V domains shown) VH: QVQLVQSGAEVKKPGSSVKVSCKASGGTFSSYAISWVRQAPGQGLEWMGGIIPIFGTANYAQKFQGRVTITADESTSTAYMELSSLRSEDTAVYYCARSSYGWSYEFDYWGQGTLVTVSS VL: DIQMTQSPSSLSASVGDRVTITCRASQSINTDLNWYQQKPGKAPKLLIYAASSLQSGVPSRFSGSGSGTDFTLTISSLQPEDFATYYCQQNRGSPITFGQGTKVEIKR	0.171 nM
VSTB100 (antibody, V domains shown) VH: EVQLVQSGAEVKKPGESLKISCKGSGYSFTSYWIGWVRQMPGKGLEWMGIIYPGDSDTRYSPSFQGQVTISADKSISTAYLQWSSLKASDTAMYYCARDVSSFYGYSPMFDYWGQGTLVTVSS VL: EIVLTQSPATLSLSPGERATLSCRASQSVSSYLAWYQQKPGQAPRLLIYDASNRATGIPARFSGSGSGTDFTLTISSLEPEDFAVYYCQQRSNWPLTFGQGTKVEIKR	1.48 nM
VSTB104 (antibody, V domains shown) VH: EVQLVQSGAEVKKPGESLKISCKGSGYSFTSYWIGWVRQMPGKGLEWMGIIYPGDSDTRYSPSFQGQVTISADKSISTAYLQWSSLKASDTAMYYCARDANSFYSAASIFDYWGQGTLVTVSS VL: not shown	0.675 nM
VSTB49 (antibody, V domains shown) VH: QVQLVQSGAEVKKPGASVKVSCKASGYTFPSHTIHWVRQAPGQRLEWMGSIYPFIDSTIYNQKFKDRVTITRDTSASTAYMELSSLRSEDTAVYYCARGIRGYTMDYWGQGTLVTVSS VL: DVVMTQSPLSLPVTLGQPASISCRASESVDNYGLSFMNWFQQRPGQSPRRLIYGASNQGSGVPDRFSGSGSGTDFTLKISRVEAEDVGVYYCQQSKEVPYTFGQGTKLEIKR	0.507 nM
INX912 | VSTB84 (antibody, V domains shown) VH: QVQLVQSGAEVKKPGASVKVSCKASGYTFTSYWMHWVRQAPGQGLEWMGYINPSTGYPGYNQKFKDRVTMTRDTSTSTVYMELSSLRSEDTAVYYCARSYYDYDGGAWFAYWGQGTTVTVSS VL: DIVMTQTPLSLSVTPGQPASISCRASESVEYYGTSLMQWYLQKPGQPPQLLIYAASNVESGVPDRFSGSGSGTDFTLKISRVEAEDVGVYYCQQSRKVPSTFGQGTKLEIKR	2.03 nM
INX904 | VSTB103 (antibody, V domains shown, INX name = the VSTB variable regions with human IgG2 constant regions) VH: EVQLVQSGAEVKKPGESLKISCKGSGYSFTSYWIGWVRQMPGKGLEWMGIIYPGDSDTRYSPSFQGQVTISADKSISTAYLQWSSLKASDTAMYYCARDDALYGGYYLDYWGQGTLVTVSS VL: not shown	0.636 nM
INX911 | VSTB76 (antibody, V domains shown) VH: QVQLVQSGAEVKKPGASVKVSCKASGYTFTDYWINWVRQAPGQGLEWMGNIYPSHSYTNYNQEFKDRVTMTRDTSTSTVYMELSSLRSEDTAVYYCARGGYRYPYYAMDYWGQGTTVTVSS VL: AIQLTQSPSSLSASVGDRVTITCGASENIYGALNWYQQKPGKAPKLLIYGATNLADGVPSRFSGSGSGTDFTLTISSLQPEDFATYYCQNVLSTPYTFGQGTKLEIKR	1.31 nM

The remaining lines, values ahead:

Kd	Binder
0.104 nM	VSTB51 (antibody, V domains shown) VH: EVQLVESGGGLVQPGGSLRLSCAASGFTFSSYTMSWVRQAPGKGLEWVATISNSGSYTYYLDSVKGRFTISRDNAKNSLYLQMNSLRAEDTAVYYCARDTVLSPFDYWGQGTTVTVSS VL: EIVLTQSPDFQSVTPKEKVTITCSATSSISYMHWYQQKPDQSPKLLIKDTSELASGVPSRFSGSGSGTDFTLTINSLEAEDAATYYCHQRSSFTFGQGTKLEIKR
0.0378 nM	INX913 | VSTB85 (antibody, V domains shown) VH: QVQLVQSGAEVKKPGASVKVSCKASGYTFTDYAMHWVRQAPGQGLEWMGVIDTYYGNTNYNQKFKGRVTMTRDTSISTAYMELSRLRSDDTAVYYCARGGGDALDYWGQGTTVTVSS VL: DIQMTQSPSSLSASVGDRVTITCKASQSVSNDVVWYQQKPGKAPKLLIYYASNRYIGVPSRFSGSGSGTDFTFTISSLQPEDIATYYCQQGYTSLRTFGQGTKLEIKR
0.0629 nM	INX909 | VSTB67 (antibody, V domains shown) VH: QVQLVQSGAEVKKPGASVKVSCKASDYIFSSYWIQWVRQAPGQGLEWMGEIFPGSGGTNYNEKFKGRVTMTRDTSTSTVYMELSSLRSEDTAVYYCARAIYYDYDMYYFDSWGQGTTVTVSS VL: DIQMTQSPSSLSASVGDRVTITCRASQDISSYLNWYQQKPGKVPKLLIYYTSRLHSGVPSRFSGSGSGTDFTLTISSLQPEDVATYYCQHVNTLPWTFGQGTKLEIKR
0.152 nM	VSTB114 (antibody, V domains shown) VH: QVQLVQSGAEVKKPGSSVKVSCKASGGTFSSYAISWVRQAPGQGLEWMGGIIPIFGTANYAQKFQGRVTITADESTSTAYMELSSLRSEDTAVYYCARHSIGWVAELDYWGQGTLVTVSS VL: DIQMTQSPSSLSASVGDRVTITCRASQSIATSLNWYQQKPGKAPKLLIYYASSLQSGVPSRFSGSGSGTDFTLTISSLQPEDFATYYCQQGAYYPLTFGQGTKVEIKR
0.089 nM	INX916 | VSTB107 (antibody, V domains shown) VH: QVQLVQSGAEVKKPGSSVKVSCKASGGTFSSYAISWVRQAPGQGLEWMGGIIPIFGTANYAQKFQGRVTITADESTSTAYMELSSLRSEDTAVYYCARSSYGWSYEFDYWGQGTLVTVSS VL: DIQMTQSPSSLSASVGDRVTITCRASQSINNDLNWYQQKPGKAPKLLIYAASSLQSGVPSRFSGSGSGTDFTLTISSLQPEDFATYYCQQNRATPITFGQGTKVEIKR
0.0433 nM	INX918 | VSTB113 (antibody, V domains shown) VH: QVQLVQSGAEVKKPGSSVKVSCKASGGTFSSYAISWVRQAPGQGLEWMGGIIPIFGTANYAQKFQGRVTITADESTSTAYMELSSLRSEDTAVYYCARHSIGWVAELDYWGQGTLVTVSS VL: DIQMTQSPSSLSASVGDRVTITCRASQSIATDLNWYQQKPGKAPKLLIYAASSLQSGVPSRFSGSGSGTDFTLTISSLQPEDFATYYCQQAHWYPLTFGQGTKVEIKR
0.167 nM	INX915 | VSTB106 (antibody, V domains shown) VH: QVQLVQSGAEVKKPGSSVKVSCKASGGTFSSYAISWVRQAPGQGLEWMGGIIPIFGTANYAQKFQGRVTITADESTSTAYMELSSLRSEDTAVYYCARSSYGWSYEFDYWGQGTLVTVSS VL: DIQMTQSPSSLSASVGDRVTITCRASQSIRTDLNWYQQKPGKAPKLLIYSASSLQSGVPSRFSGSGSGTDFTLTISSLQPEDFATYYCQQNERTPITFGQGTKVEIKR
0.115 nM	VSTB105 (antibody, V domains shown) VH: QVQLVQSGAEVKKPGSSVKVSCKASGGTFSSYAISWVRQAPGQGLEWMGGIIPIFGTANYAQKFQGRVTITADESTSTAYMELSSLRSEDTAVYYCARSSYGWSYEFDYWGQGTLVTVSS VL: DIQMTQSPSSLSASVGDRVTITCRASQSIATNLNWYQQKPGKAPKLLIYAASSLQSGVPSRFSGSGSGTDFTLTISSLQPEDFATYYCQQNDDRPITFGQGTKVEIKR
0.102 nM	VSTB109 (antibody, V domains shown) VH: QVQLVQSGAEVKKPGSSVKVSCKASGGTFSSYAISWVRQAPGQGLEWMGGIIPIFGTANYAQKFQGRVTITADESTSTAYMELSSLRSEDTAVYYCARSSYGWSYEFDYWGQGTLVTVSS VL: DIQMTQSPSSLSASVGDRVTITCRASQSIATYLNWYQQKPGKAPKLLIYAASSLQSGVPSRFSGSGSGTDFTLTISSLQPEDFATYYCQQNHNRPITFGQGTKVEIKR
0.126 nM	INX903 | VSTB95 (antibody, V domains shown, INX903 = VSTB95 variable regions with wild-type human IgG2 constant regions) VH: EVQLVESGGGLVQPGGSLRLSCAASGFTFRNYGMSWVRQAPGKGLEWVASIISGGSYTYYPDSVKGRFTISRDNAKNSLYLQMNSLRAEDTAVYYCARIYDHDGDYYAMDYWGQGTTVTVSS VL: DIVMTQSPLSLPVTPGEPASISCRSSQSIVHSNGNTYLEWYLQKPGQSPQLLIYKVSNRFSGVPDRFSGSGSGTDFTLKISRVEAEDVGVYYCFQGSHVPWTFGQGTKLEIK
0.0264 nM	INX905 | VSTB53 (antibody, V domains shown, INX name = the VSTB variable regions with human IgG2 constant regions) VH: QVQLVQSGAEVKKPGASVKVSCKASGYTFTHYTIHWVRQAPGQGLEWMGYIIPSSGYSEYNQKFKDRVTMTRDTSTSTVYMELSSLRSEDTAVYYCARGAYDDYYDYYAMDYWGQGTLVTVSS VL: DIVMTQSPLSLPVTPGEPASISCRSSQTIVHSNGNTYLEWYLQKPGQSPQLLIYKVSNRFSGVPDRFSGSGSGTDFTLKISRVEAEDVGVYYCFQASHVPWTFGQGTKLEIK
